Test: soluble on expression in E. coli; label from the status in PepcDB or PDB records

Soluble on expression in E. coli, not soluble:
MGSDKIHHHHHHMQDLNDLSLFAQVVEHGSFSAASRATGIPKSRLSRRIAQLERDLGVQLLRRTTRQVRVTPLGESYYERCRAMLKEAEAAHEVIEQARDQPGGTLRVSCPVAIAQILLAPAIGHFMRANPAVRIELEATNRRVDVIGEGYDLSLRVRDVLEDSSLAVRTFGESQLMLVASPGLLDSIGRPRTPQALDGMPGVGQKPHDGKHVWVLGCKSGETIQIAYDPRLVTDEFSLLREAAIAGIGVAMLPRMYCRDAIDAGELELLLPQWEMPVGTLHAVFPSRKGVTPAVRRFLDFLSEILPENARKVGMHEPRQPAMHRAV
MGSDKIHHHHHHMQEIVDQLAATIRAAAASNVPLRIRSGGTKDFYGQQDKGRDVAPEGILDPTAFAGIVDYEPTELVVTARTGTPLAQLETELNGRGQMLAFEPPHFGAGATLGGCIAAGLSGPRRASAGAVRDFVLGVRMLDGRGDDLSFGGRVMKNVAGYDIPRLMAGSLGTLGLLLEVSLKVLPLPAEERTLRLSMNEAVAIETMNRWAGKPLPVSATCFCEGELTVRLSGATSAVRAARAVLGGEEIVENSSFWKSIREQVHPFFRSGKQLWRLSIKSTTAPLSLPGKQLIEWGGAVRWLSVDAEMDNDAVETLVRKTAKEAGGHATLFRSRTPAAAVFHPLPPAMMNIHRQLKEKFDPMRIFNRGRLYPEL
MGSDKIHHHHHHMQEQINLSEWRERARSFEQSANKVVLGLERQVRALTIAIFSRGHVLLEGDVGVGKTTLLKAASRLLGGAYQRIEGAIDLMPGDFLYHAYIDQNGQPAVAPGPLLRHEENLAVFFFNEINRARPQAHSLLLRLMAERSVNAFNRDYAFPHLTVFADRNGLEREETFELPAAARDRFFMEVSVTAPEDKELQRDLMFSTRFHDADALIETLEPGLVPYDKLNAVSAAIQESVRSELALQDYAVNIWQALRHPERIGIEIEDVDISRLVAGGASPRGMAMLMRAARTRAWLEGRDYLTPDDIRAVFPETVGHRVFFTPAYELRRDEIAPALLSGVLNKIPAP
MGSDKIHHHHHHMQFDNLLSRADDGTLQVLLGNAAVRLIKLLDPSLVTPSRLREILMELHTPASLLLTKDSRAMLLDLLRPEQAKILATIMQVPLTGDIFETLKKTSIRHGSNRERALFDFFELELPQPEDSVQSSSLELAVSNYPLFAHQRIAARKVKNYFKQEPRRVLLHMPTGSGKTRTAMNIIADHLRSVEPTIVVWLAYSEELCEQAATEFQKAWQCLGDRQVSLYRFWGEHEIDVDKLEDGIVVAGLSKVYNRTKQSIQFINRLGKVSSLVIIDEAHQAIAETYKLVLDALVVPYENTALLGLTATPGRTWSDINVDTELSEFFAKNKVTLEVSGYSNPVDYLISEEYLAKPNFRSLFYKNGLKLTQKDLERIQQELEIPQHILEQLADDEQRNLSIIIEVEELAKRHQRILIFGISIKHSKLLATVLRARGLQANVVTGDTPLLERTRLINSFKDDSDETKIICNYGVLTTGFDAPRTSAAVIARPTKSLVLYSQMVGRAIRGVKAGGNVTAEIVTVVDSALRGFGSLEEAFSNWEDVWHKEKI
MGSDKIHHHHHHMQFDPPLQPAILLKRYKRFLADVVTPDGRELTLHCPNTGAMTGCAAPGDTVWYSTSDNAKRKYAHTWELTETQQGAVICVNTLRANSLAKEAISAGIIPELSGYNQLKSEVKYGEENSRIDIMLQADDRQNCYIEVKSVTLAEKEYGYFPDAVTTRGQKHLRELMAVAANGDRAVILFAVLHSAIDRFSPAHHIDARYAQLLTEAQDKGVEILAWKAELSTTRMTLNKPIAVVLNPGK
MGSDKIHHHHHHMQGSAMLVHPQYDSNCPKTSVEVSEGFGGWFARICEDDQETFHQFRRERDAIAFADTQRMRLGLPCPPLERTASSGHKAIRKINQIADVLRTRGLGRFLQLSTLSLSEPIRSQRLRYRVASDARQALSKIKAASRHRGLFIDCGSNIGQAYKFFSRYYTPDYYDYVLVEPNKNCLEHLHSLRSENVAIEVVAKAASVKDGYAEFLGPPGRSDLTYEGCSIVPSHNGGLYPSQRFTPELVETFSLSQMIQAKRGLYEVIVLKLDVEGAEYEILDDLIRSGLHRDLHATYVEFHSLYMRNSEGRKTAVVERKIVDEFQQAGTHISRWI
MGSDKIHHHHHHMQLKRMGYAQTKIRQGPNHRDGEQVTFLDVKQFFGLGHVRVGSWVSSEESLIAANMVFDALADLALVLGLPPKVMGLRERLNLAFGHGGQQGVMAHYSPSERTLALAKHAGAGAVAHEFWHAFDHHLSDTAMDIGRSQKARFASELWLNDVPLLCHPLNDRLEALFQSVLLSGDGEHPSDYVRRAIQLDKTYGRLYFSHPSELMARAFEAAIESEGDFEQVDTDSGEIHLLPLINPYLVTGTLEDIKTENKGELLPKFGSWGAMPQGAFPTPIHRQAIMKAMAGYFRPLGRALAKTLS
MGSDKIHHHHHHMQLPNLQSATLLRRYKRFLADVELNNGEILTLHCANTGAMTGCGEKGDTVWFSTSDSKTRKYPHSWELTQLKNGQTVCINTHRSNQLTLEALQNKIITELAEYDEILPEVKYGVENSRIDFLLKGKNLPDCYVEVKSVTFVKNHLGLFPDAVTTRGQKHLRELIAMKKRGHRAVVFFAGLHDGFNRFTVAKSIDPDYAELLQQAVKEGVEVYSYAVKFDFSHQKPTALYLTNLVNYLE
MGSDKIHHHHHHMQLYYAPNTISVAVAIALEEAGLAYEAVKIDFAEKQQTTRAYHQINPKGRVPALAVEGGILTETGALLEFIADLAPDADLRPSDPVLQARMREVMFYLASTMHVNHAHKMRGSRWASNPASFKDMARKVPETMAASCEYICNHGLRGPFVLGDTPCLADFYLYVVCTWLEGDGVKLAGFPKLRAFIEAMDARDSVKTVRAKDML
MGSDKIHHHHHHMQNHVISLASAAERRAHITDTFGVRGIPFQFFDALMPSERLEQAMAELVPGLSAHPYLSGVEKACFMSHAVLWKQALDEGLPYIAVFEDDVLLGEGAEKFLAEDAWLQERFDPDSAFIVRLETMFMHVLTSPSGVADYCGRAFPLLESEHWGTAGYIISRKAMWFFLDRFAALPSEGLHPVDWMMFGNPDDRERMPVCQLNPALCAQELHYAKFHDQNSALGSLIEHDRCLNSKQQRRDSPANTFKHRLIRALTKISREREKRRQRREQLIGKIIVPFQ
MGSDKIHHHHHHMQNPFTLTFGRSPLESVDRPVQINEIIENFTADTINQQMFIITGVRGSGKTVMMTEISHRLRENDDWVVIELNPATELLPAMLSKLNSDNICAGLIKSAKLDLSFFGFGVSIEGTQPITDAETAIIKILERLKKSGKRLLITIDEMTNSEYMKVFAGAFQIFVRQELPVFLLGTGLYENIEELQNEKSLTFLYRAPKIQLKPLNNAAIINKYKTIFNISPEKAAQMAGLTKGYPFAFQVLGYLTWNNGGDYNGILGEYEQYLSEFVYDKIWSELSQKDRMVAKGIADVQSGKIKEIRDAIGMETNEFNPYRKRLIKKGIVSGEIRGYVYFTLPLFEEYVIENY
MGSDKIHHHHHHMQQEQRILFKNDTGDYAAVAAGEESVLQAGLRQSVPLNYHCASGSCGSCKARLIQGALKVHTGTDFIQVSHTADQVCEYPEVHLCQSHAVSDCVFEALYDKNVPPDLVTPKHYAASLSDVRPLGSGLYRLLVDFDDSIRFLPGQYVMLATEAGGRARAYSVANFAQDSRQLEFILSCNPNGAMSPQLCDINNIGMQLQGYGPLGKAYIRPSKDKEIVMLVGGSGVSVALSTLEWAISSHYIDDRHLTIFWGVRDTSPIDLIGVLNRYAAVHSNLRVAVCSDISPSVQDRVRFPHIEFFTGYPADHIVNDASISWEGKEVYISGPPPMVDHTVRQLMINTEIDALDIKCDSFV
MGSDKIHHHHHHMQREKVDVLVIGAGPAGTVAASLVNKSGFKVKIVEKQKFPRFVIGESLLPRCMEHLDEAGFLDAVKAQGFQQKFGAKFVRGKEIADFNFSDQFSNGWNWTWQVPRGNFDKTLADEAARQGVDVEYEVGVTDIKFFGTDSVTTIEDINGNKREIEARFIIDASGYGRVIPRMFGLDKPSGFESRRTLFTHIKDVKRPVAAEMEGNRITAVVHKPKVWIWVIPFSNGNTSVGFVGEPSYFYYYTGTPEERMRAMIANEGHIAERFKSEEFLFEPRTIEGYAISASKLYGDGFVLTGNATEFLDPIFSSGATFAMESGSKGGKLAVQFLKGEEVNWEKDFVEHMMQGIDTFRSFVTGWYDGTLHAVFFAKNPDPDHKRMICSVLAGYVWDKNNPFVKKHNTILKTLAKVIQMGEEA
MGSDKIHHHHHHMQSRMHPRYYLSLEIFEREQKKIFRKAWLFAGLKTLLSEHNAFITRRIAGIPIVIQNFHGELRAFENVCLHRNALLQTEAVGKRPLVCAYHAWRYDAEGRVDHIPECDAVYRFSAEEKQGLKLRRFALHAVGNVLFINLDTDPLPFEEQFTPAFIDLLESSSNTYDTEVMVTTWHGKFNWKLAYENLRDANHPRFVHPKSLAKTVKFTPTVDEALFRESGLQLTDTSPSALRREMRRFSHAGADAPIPDLQHFGWHELVERWGDQDSYYNWLAFPNLHIASANGGFSFTLEHHIPIAPDRTDLEIYWFTARKKQAYAFSHQVLLAQMHGSKLVVGEDVEIMEQVQAALHADAPLPNQGAYESSNRLVERWYTTLMDGDHDI
MGSDKIHHHHHHMQTHQELYLPRMGCGTWAWGNQLLWGYNESMDEQLQAVFNLCVSNGVTLFDTGDSYGTGRLNGRSELLLGQFAQEYQGVNQENICIATKLAAYPWRWTRQSMINACKSSAQRLGRNVDLVQMHWSTANYAPWQESGLLDGLADLYEQGLVKGVGLSNYGTKRLQRVHQKFAERGVPIKTLQVQYSLLSTYPVTELGLKDVCDQLGIKLIAYSPLALGILTGKYSEKGPFPRGVRGLLFRQLLPGVRSLLQCLQDVAQSRNKTMSQVALNWCIAKGTIPIPGAKSVKQAQENIGALGWQLDSGEIAELDKAAASSDKKMVQNIFQTK
MGSDKIHHHHHHMQVGTIFGHKNSEGTLVSSAAIIPYESKLASIGMVIVSSQCRGLGLGREVTEACIKATLEDTTLMLIATDEGRPLYERLGFAAVERIHKHLCDDYKEPESIPSMDVTIEELRSNDFRQLVQLDEGAMGVRRSRFLKQRTTQANQSLVAKDKAGNVIGYGLSILGPIHLIIGPIVAPNHEIACLILDRLACQHKGKLRMDVPSGHHTFLQHLQRRGFTEVNTPPVMAKQSAYEPRRNGTLFAIAAQVFG
MGSDKIHHHHHHMRALLCGYYGEGNGGDEALLAALLQLLPPTVEPLVLSGNPAATRTCYGVEACDRRSGAAVWQALRRSDLFIFGGGSLIQDVTSWTSPLYYCGLMGLAQQLGLKTIAWAQGIGPLQRKRTRWLARRTFQHCDRITVRDRGSAALLKEWGISVAIAPDPVWALEPLPLDQPLSNQEAIAVCLRPHPELTPERSDRLKAALTTLQSQTQAPILLIPFHHQQDRPLAAQWASEIPQAEVLDWQHPRQLLSYFQSVRLTIAMRFHGLVMAAAAGNRCFGLSYDPKVRRFLDALEQPGWDLPEIPDSAEAIAAAWLESWQAEPIHAAAIADLRQQVDVHRQALVF
MGSDKIHHHHHHMRASSHLPQLHGRLDLTFERRRGTTRLVASEQTPPLNVSRVLRTEEVDLATVYLVETSGGVVSGDSQTIAIYVGEGARVELIPQSATKVYPSRKQGESSTQQVWLRVDEGAAAFWKPESIIPFRKASFLQSTRFHLHSSSTFFYGDMLTPGRVHHNERFQYEQVDSLVEIYLDETLVVHDRVHLQPKDQLQTIGRLDGYSYYGAVWMHAPILKGAHLEQWMENGGQNDRFAYTCVAEGLIHVRWLSESSWRLRAALNDLYTAFRTFALKGE

Source: the DeepSol protein solubility set
